Measured values from the supplement of paper PMC7877785.
± gives the uncertainty stated by the source.

Experiment: self-splicing fitness, log relative to wild type (ln ratio); higher = more splicing; Tetrahymena group I intron in knt gene, E. coli kanamycin selection, DiMSum; sequences stand for … in CUCUCU…GGAGGGAAAAGUUAUCAGGCAUGCACCUGGUAGCUAGUCUUUAAACCAAUAGAUUGCAUCGGUUUAAAAGGCAAGACCGUCAAAUUGCGGGAAAGGGGUCAACAGCCGUUCAGUACCAAGUCUCAGGGGAAACUUUGAGAUGGCCUUGCAAAGGGUAUGGUAAUAAGCUGACGGACAUGGUCCUAACCACGCAGCCAAGUCCUAAGUCAACAGAUCUUCUGUUGAUAUGGAUGCAGUUCACAGACUAAAUGUCGGUCGGGGAAGAUGUAUUCUUCUCAUAAGAUAUAGUCGGACCUCUCCUUAAUGGGAGCUAGCGGAUGAAGUGAUGCAACACUGGAGCCGCUGGGAACUAAUUUGUAUGCGAAAGUAUAUUGAUUAGUUUUGGAGUACUCGUGGUCG
Procedure, shortened: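 The eight P1ex-region nucleotides of an intron in the knt kanamycin-resistance gene on pET-22b(+) were all randomised and the library put into E. coli BL21(DE3). Six replicate transformations were grown overnight at 37°C or 30°C on LB agar with or without 25 μg/mL kanamycin, together with 100 μg/mL carbenicillin, 50 μM IPTG and 0.2% rhamnose. Colonies were pooled and amplicon-sequenced on an Illumina HiSeq 2500. Fitness from DiMSum is the error-weighted combination of wild-type-normalised replicate fold changes, kanamycin over none.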

Row | Sequence | self-splicing fitness (ln) (30 °C) | self-splicing fitness (ln) (37 °C)
1 | GGUGAGCAAUAUUACGGCUA | -0.0423 ± 0.12 | 0.0315 ± 0.14
2 | GGUGAGCAAUAUUACGGCUG | -1.06 ± 0.15 | -0.543 ± 0.21
3 | GGUGAGCAAUAUUACGGGCA | -1.68 ± 0.17 | -0.406 ± 0.17
4 | GGUGAGCAAUAUUACGGUGA | -2.81 ± 0.23 | -1.28 ± 0.21
5 | GGUGAGCAAUAUUACGGUGC | -2.09 ± 0.14 | -0.734 ± 0.2
6 | GGUGAGCAAUAUUACGGUUG | -3.99 ± 0.37 | -2.36 ± 0.25
7 | GGUGAGCAAUAUUACGUAUU | -1.96 ± 0.31 | -1.94 ± 0.47
8 | GGUGAGCAAUAUUACGUCAA | -3.58 ± 0.46 | -2.78 ± 0.31
9 | GGUGAGCAAUAUUACGUCCG | -1.13 ± 0.21 | -0.66 ± 0.29
10 | GGUGAGCAAUAUUACGUCCU | -0.834 ± 0.23 | -1.45 ± 0.22
11 | GGUGAGCAAUAUUACGUCGC | -3.57 ± 0.49 | –
12 | GGUGAGCAAUAUUACGUCGU | -2.57 ± 0.15 | -1.91 ± 0.2
13 | GGUUAGCAAUAUUACGAACA | -0.6 ± 0.18 | 0.626 ± 0.25
14 | GGUUAGCAAUAUUACGAGUC | -3 ± 0.39 | -1.16 ± 0.23
15 | GGUUAGCAAUAUUACGAUUU | 0.309 ± 0.089 | 0.0839 ± 0.12
16 | GGUUAGCAAUAUUACGCCGG | -2.48 ± 0.5 | -3.55 ± 0.42
17 | GGUUAGCAAUAUUACGCCGU | -1.91 ± 0.22 | -1.03 ± 0.21
18 | GGUUAGCAAUAUUACGCCUA | 0.0795 ± 0.32 | -1.32 ± 0.25
19 | GGUUAGCAAUAUUACGCGCG | -0.271 ± 0.15 | 0.879 ± 0.15
20 | GGUUAGCAAUAUUACGGACG | 0.908 ± 0.17 | -0.388 ± 0.22
21 | GGUUAGCAAUAUUACGGCUA | -0.605 ± 0.088 | 0.861 ± 0.13
22 | GGUUAGCAAUAUUACGGUUA | -1.23 ± 0.11 | -0.486 ± 0.082
23 | GGUUAGCAAUAUUACGGUUG | -2.73 ± 0.32 | -1.57 ± 0.33
24 | GGUUAGCAAUAUUACGGUUU | -0.608 ± 0.086 | -0.0158 ± 0.11
25 | GGUUAGCAAUAUUACGUAAG | -0.619 ± 0.14 | -0.436 ± 0.23

Row | Sequence | self-splicing fitness (ln) (30 °C) | self-splicing fitness (ln) (37 °C)
26 | GGUUAGCAAUAUUACGUCCG | -0.773 ± 0.11 | -0.617 ± 0.2
27 | GGUUAGCAAUAUUACGUGCG | -0.0643 ± 0.066 | 0.0143 ± 0.078
28 | GGUUAGCAAUAUUACGUUGG | -4.01 ± 0.34 | -1.72 ± 0.18
29 | GUAAAGCAAUAUUACGAACG | -0.437 ± 0.077 | -0.132 ± 0.12
30 | GUAAAGCAAUAUUACGACAA | -0.153 ± 0.12 | -0.2 ± 0.13
31 | GUAAAGCAAUAUUACGAGCA | 0.322 ± 0.08 | 0.673 ± 0.11
32 | GUAAAGCAAUAUUACGAUCC | -0.0218 ± 0.18 | 0.363 ± 0.29
33 | GUAAAGCAAUAUUACGCAAG | -2.89 ± 0.18 | -0.51 ± 0.12
34 | GUAAAGCAAUAUUACGCAAU | -0.316 ± 0.098 | -0.564 ± 0.16
35 | GUAAAGCAAUAUUACGCACG | -0.557 ± 0.067 | -0.242 ± 0.093
36 | GUAAAGCAAUAUUACGCGUA | -1.25 ± 0.094 | -0.105 ± 0.12
37 | GUAAAGCAAUAUUACGCUCU | -2.11 ± 0.19 | -0.206 ± 0.24
38 | GUAAAGCAAUAUUACGCUGA | -1.4 ± 0.072 | -0.903 ± 0.099
39 | GUAAAGCAAUAUUACGCUUC | -3.5 ± 0.23 | -1.97 ± 0.23
40 | GUAAAGCAAUAUUACGGCCC | 0.25 ± 0.16 | 0.443 ± 0.24
41 | GUAAAGCAAUAUUACGGCCU | -0.0192 ± 0.12 | 0.105 ± 0.12
42 | GUAAAGCAAUAUUACGGGAC | -1.62 ± 0.12 | -1.18 ± 0.11
43 | GUAAAGCAAUAUUACGGUGG | -2.81 ± 0.11 | -1.48 ± 0.11
44 | GUAAAGCAAUAUUACGGUUA | -0.077 ± 0.058 | 0.569 ± 0.086
45 | GUAAAGCAAUAUUACGUAAC | -1.7 ± 0.17 | -1.38 ± 0.28
46 | GUAAAGCAAUAUUACGUAAU | -1.58 ± 0.073 | -0.314 ± 0.098
47 | GUAAAGCAAUAUUACGUAGC | -2.6 ± 0.11 | -0.771 ± 0.097
48 | GUAAAGCAAUAUUACGUAGG | -2.5 ± 0.11 | -1.35 ± 0.15
49 | GUAAAGCAAUAUUACGUAUG | -4.04 ± 0.25 | -0.559 ± 0.12
50 | GUAAAGCAAUAUUACGUCAA | -1.56 ± 0.098 | -0.85 ± 0.097

Row | Sequence | self-splicing fitness (ln) (30 °C) | self-splicing fitness (ln) (37 °C)
51 | GUAAAGCAAUAUUACGUCAU | -0.555 ± 0.095 | -0.359 ± 0.096
52 | GUAAAGCAAUAUUACGUGCU | -2.34 ± 0.11 | -0.431 ± 0.12
53 | GUAAAGCAAUAUUACGUGGC | -3.42 ± 0.18 | -2.48 ± 0.2
54 | GUACAGCAAUAUUACGAACA | -1.51 ± 0.11 | -0.736 ± 0.11
55 | GUACAGCAAUAUUACGACUA | -1.16 ± 0.13 | -0.637 ± 0.12
56 | GUACAGCAAUAUUACGAGAA | -2.36 ± 0.45 | -1.51 ± 0.27
57 | GUACAGCAAUAUUACGAGGC | -3.95 ± 0.46 | -1.41 ± 0.18
58 | GUACAGCAAUAUUACGCACG | -2.42 ± 0.28 | -0.89 ± 0.19
59 | GUACAGCAAUAUUACGCGCG | -1.45 ± 0.19 | -0.578 ± 0.17
60 | GUACAGCAAUAUUACGCGUG | -2 ± 0.061 | -1.42 ± 0.072
61 | GUACAGCAAUAUUACGGCCU | -1.84 ± 0.17 | 0.0868 ± 0.17
62 | GUACAGCAAUAUUACGGGCC | -3.94 ± 0.3 | -1.14 ± 0.15
63 | GUACAGCAAUAUUACGGUUG | -3.9 ± 0.23 | -1.86 ± 0.2
64 | GUACAGCAAUAUUACGUAUU | -3.45 ± 0.14 | -2.45 ± 0.17
65 | GUACAGCAAUAUUACGUUUC | -3.44 ± 0.14 | -1.87 ± 0.14
66 | GUAGAGCAAUAUUACGACAU | 0.278 ± 0.014 | 0.459 ± 0.033
67 | GUAGAGCAAUAUUACGACUA | -0.724 ± 0.071 | 0.693 ± 0.11
68 | GUAGAGCAAUAUUACGAGAG | – | -2.05 ± 0.36
69 | GUAGAGCAAUAUUACGAUAC | -1.42 ± 0.13 | -0.561 ± 0.18
70 | GUAGAGCAAUAUUACGAUUU | -1.13 ± 0.12 | -0.037 ± 0.21
71 | GUAGAGCAAUAUUACGCAUA | -1.58 ± 0.14 | -1.59 ± 0.17
72 | GUAGAGCAAUAUUACGCCAC | -1.7 ± 0.29 | –
73 | GUAGAGCAAUAUUACGCGAA | -1.12 ± 0.058 | -0.709 ± 0.077
74 | GUAGAGCAAUAUUACGCGAG | -1.69 ± 0.14 | -0.548 ± 0.14
75 | GUAGAGCAAUAUUACGCGUA | -1.64 ± 0.2 | -0.093 ± 0.25

Row | Sequence | self-splicing fitness (ln) (30 °C) | self-splicing fitness (ln) (37 °C)
76 | GUAGAGCAAUAUUACGGAAA | -2.18 ± 0.28 | -2.18 ± 0.22
77 | GUAGAGCAAUAUUACGGUAU | -1.38 ± 0.083 | -0.286 ± 0.1
78 | GUAGAGCAAUAUUACGGUCA | -1.47 ± 0.098 | -0.0887 ± 0.12
79 | GUAGAGCAAUAUUACGGUCU | -1.46 ± 0.1 | -0.783 ± 0.14
80 | GUAGAGCAAUAUUACGUCAA | -2.01 ± 0.14 | -2.38 ± 0.29
81 | GUAGAGCAAUAUUACGUCUA | -1.34 ± 0.11 | -0.919 ± 0.13
82 | GUAGAGCAAUAUUACGUCUC | -0.285 ± 0.092 | -0.305 ± 0.099
83 | GUAGAGCAAUAUUACGUGAU | -2.29 ± 0.2 | -1.36 ± 0.19
84 | GUAGAGCAAUAUUACGUGGG | -2.75 ± 0.17 | -2.08 ± 0.2
85 | GUAGAGCAAUAUUACGUGUU | -3.68 ± 0.21 | -2.04 ± 0.19
86 | GUAGAGCAAUAUUACGUUCA | -0.476 ± 0.1 | -0.627 ± 0.11
87 | GUAGAGCAAUAUUACGUUUA | -2.09 ± 0.17 | -1.39 ± 0.17
88 | GUAUAGCAAUAUUACGAAAA | – | -1.18 ± 0.22
89 | GUAUAGCAAUAUUACGAAAG | -3.15 ± 0.43 | -2.06 ± 0.35
90 | GUAUAGCAAUAUUACGAACA | -2.44 ± 0.27 | -1.21 ± 0.27
91 | GUAUAGCAAUAUUACGAACG | -1.91 ± 0.32 | –
92 | GUAUAGCAAUAUUACGAAGG | -3.44 ± 0.36 | -1.61 ± 0.29
93 | GUAUAGCAAUAUUACGAGAA | – | -2.32 ± 0.49
94 | GUAUAGCAAUAUUACGAGGG | -3.15 ± 0.26 | -0.987 ± 0.23
95 | GUAUAGCAAUAUUACGAUAA | -0.869 ± 0.12 | -0.771 ± 0.16
96 | GUAUAGCAAUAUUACGCACG | -1.99 ± 0.19 | -0.994 ± 0.3
97 | GUAUAGCAAUAUUACGCAGG | -3.15 ± 0.45 | -3.36 ± 0.47
